Legend:
[1] = target: T1, human lens ALDH1A1 (Homo sapiens, UniProt P00352); assay type: biochemical
T1 sequence (P00352 1-501): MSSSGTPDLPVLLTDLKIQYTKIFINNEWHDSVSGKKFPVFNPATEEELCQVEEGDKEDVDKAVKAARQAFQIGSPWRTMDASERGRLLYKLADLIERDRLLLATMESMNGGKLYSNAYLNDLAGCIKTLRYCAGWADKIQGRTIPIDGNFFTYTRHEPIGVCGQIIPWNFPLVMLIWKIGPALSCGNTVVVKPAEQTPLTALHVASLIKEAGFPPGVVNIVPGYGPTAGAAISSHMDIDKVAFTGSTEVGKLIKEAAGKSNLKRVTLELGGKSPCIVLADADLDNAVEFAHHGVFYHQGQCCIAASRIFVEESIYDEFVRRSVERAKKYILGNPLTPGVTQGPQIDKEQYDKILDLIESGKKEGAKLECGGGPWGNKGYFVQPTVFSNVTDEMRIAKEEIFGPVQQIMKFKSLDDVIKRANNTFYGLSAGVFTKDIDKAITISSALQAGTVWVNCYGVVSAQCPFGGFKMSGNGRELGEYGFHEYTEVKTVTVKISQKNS

[2] = target: T1, human lens ALDH1A1; assay type: biochemical; remark: listed apart in the source
[3] = substrate: CCCCCC(O)C=CC=O; experiment: purified protein; conditions: NAD+ probably both the substrates fit the active site well
[4] = substrate: O=Cc1ccccc1; experiment: purified protein; assay type: biochemical, Homo sapiens; conditions: NAD+
[5] = substrate: NC(=O)c1ccc[n+]([C@@H]2O[C@H](COP(=O)([O-])OP(=O)(O)OC[C@H]3O[C@@H](n4cnc5c(N)ncnc54)[C@H](O)[C@@H]3O)[C@@H](O)[C@H]2O)c1; experiment: purified protein; assay type: biochemical, Homo sapiens; conditions: may interfere with NO binding to catalytic site; varied: cofactor
[6] = substrate: O=CCC=O; experiment: purified protein; assay type: biochemical, Homo sapiens; conditions: NAD+ probably both the substrates fit the active site well
[7] = substrate: CCC=O; experiment: purified protein; assay type: biochemical, Homo sapiens; conditions: NAD+

Molecule `CC(C)=CCCC(C)=CC=O` [citral, 3,7-dimethyl-2,6-octadienal] has an IC50 [1] of 55 µM.

For `CC/C(=C(/CC)c1ccc(O)cc1)c1ccc(O)cc1` [diethylstilbestrol], the EC50 [2] was 11.3 µM.

B1: human lens ALDH1A1 (Homo sapiens) (protein)
chain: T1 sequence (P00352 1-501)
B1 gave a Km [3] of 4.8 ± 0.12 µM, a Vmax [3] of 0.135 ± 0.0152 µmol/min/mg and a Km [4] of 143.2 ± 6.4 µM. It also gave a Vmax [4] of 0.75 µmol/min/mg, a Km [5] of 59.4 ± 2.4 µM and a Vmax [5] of 0.15 µmol/min/mg. For the same molecule, the Km [6] was 3.5 ± 0.6 µM, the Vmax [6] was 0.382 µmol/min/mg and the Km [7] was 121.4 ± 6.7 µM. For the same molecule, the Vmax [7] was 0.445 µmol/min/mg.

From article PMC5645793 (Journal of toxicology and environmental health. Part A, 2009)
